In the supplement of paper PMC10065799, “High-throughput profiling of sequence recognition by tyrosine kinases and SH2 domains using bacterial peptide display” (eLife, 2023):

How the values were obtained:
Hck = Hck (UniProt P08631); assay: phosphorylation enrichment, bacterial display (enrichment ratio); higher = better substrate or ligand; peptides without Tyr show the background
EPHB2 = EPHB2 (UniProt P29323); assay: as above
Fer (mouse) = assay: as above
Fyn = Fyn (UniProt P06241); assay: as above
EPHB1 = EPHB1 (UniProt P54762); assay: as above
Fes = Fes (UniProt P07332); assay: as above
AncSZ = assay: as above
FGFR1 = FGFR1 (UniProt P11362); assay: as above
c-Abl (mouse) = assay: as above
FGFR3 = FGFR3 (UniProt P22607); assay: as above
Jak2 = Jak2 (UniProt O60674); assay: as above
c-Src = assay: as above
MERTK = MERTK (UniProt Q12866); assay: as above
c-Src SH2 = assay: SH2 binding enrichment of the phosphorylated peptide, bacterial display (enrichment ratio); higher = better substrate or ligand; peptides without Tyr show the background
SHP2-C SH2 = assay: as above
Grb2 SH2 = Grb2 SH2 (UniProt P62993); assay: as above
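Throughout, for SH2 binding enrichment of the phosphorylated peptide, bacterial display: peptide library displayed on the E. coli surface as eCPX fusions, selected cells deep-sequenced, score is each peptide's frequency after selection divided by its frequency in the input.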
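Throughout, for phosphorylation enrichment, bacterial display: 11-residue human phosphosite peptides and single-mutation variants displayed on the E. coli surface, counted by deep sequencing, each peptide's frequency after selection divided by its frequency in the unselected input library; frequency after pTyr selection over input frequency; kinase dosed for 20-30% of maximal phosphorylation in three min.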

Sequence of MERTK (Q12866 whole entry, looked up): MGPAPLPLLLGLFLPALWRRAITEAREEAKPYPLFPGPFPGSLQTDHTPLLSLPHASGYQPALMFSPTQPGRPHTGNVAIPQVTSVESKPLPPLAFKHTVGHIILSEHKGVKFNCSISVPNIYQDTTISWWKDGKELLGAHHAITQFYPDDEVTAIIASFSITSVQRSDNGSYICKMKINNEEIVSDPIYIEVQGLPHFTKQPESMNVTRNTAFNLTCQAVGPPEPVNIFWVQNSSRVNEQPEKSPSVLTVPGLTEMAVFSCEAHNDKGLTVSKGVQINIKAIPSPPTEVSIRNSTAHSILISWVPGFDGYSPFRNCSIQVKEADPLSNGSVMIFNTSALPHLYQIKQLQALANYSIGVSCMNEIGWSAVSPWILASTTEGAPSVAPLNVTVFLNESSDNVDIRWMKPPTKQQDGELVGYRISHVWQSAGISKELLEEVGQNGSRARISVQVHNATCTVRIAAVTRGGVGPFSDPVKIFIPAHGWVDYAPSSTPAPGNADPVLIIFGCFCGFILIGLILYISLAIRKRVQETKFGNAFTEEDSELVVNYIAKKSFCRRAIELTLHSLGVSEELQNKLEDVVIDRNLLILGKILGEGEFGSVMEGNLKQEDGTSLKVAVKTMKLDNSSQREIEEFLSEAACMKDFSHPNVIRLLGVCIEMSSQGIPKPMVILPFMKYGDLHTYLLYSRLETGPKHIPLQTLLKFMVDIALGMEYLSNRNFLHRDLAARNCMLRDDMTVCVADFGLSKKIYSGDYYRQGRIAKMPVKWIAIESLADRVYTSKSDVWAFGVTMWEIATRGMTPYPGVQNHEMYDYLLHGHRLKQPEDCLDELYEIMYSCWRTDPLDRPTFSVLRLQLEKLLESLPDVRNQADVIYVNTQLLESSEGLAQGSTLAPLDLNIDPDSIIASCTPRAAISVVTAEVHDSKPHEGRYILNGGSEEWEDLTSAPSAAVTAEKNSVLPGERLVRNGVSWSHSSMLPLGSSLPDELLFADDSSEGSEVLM
Sequence of Jak2 (O60674 whole entry, looked up): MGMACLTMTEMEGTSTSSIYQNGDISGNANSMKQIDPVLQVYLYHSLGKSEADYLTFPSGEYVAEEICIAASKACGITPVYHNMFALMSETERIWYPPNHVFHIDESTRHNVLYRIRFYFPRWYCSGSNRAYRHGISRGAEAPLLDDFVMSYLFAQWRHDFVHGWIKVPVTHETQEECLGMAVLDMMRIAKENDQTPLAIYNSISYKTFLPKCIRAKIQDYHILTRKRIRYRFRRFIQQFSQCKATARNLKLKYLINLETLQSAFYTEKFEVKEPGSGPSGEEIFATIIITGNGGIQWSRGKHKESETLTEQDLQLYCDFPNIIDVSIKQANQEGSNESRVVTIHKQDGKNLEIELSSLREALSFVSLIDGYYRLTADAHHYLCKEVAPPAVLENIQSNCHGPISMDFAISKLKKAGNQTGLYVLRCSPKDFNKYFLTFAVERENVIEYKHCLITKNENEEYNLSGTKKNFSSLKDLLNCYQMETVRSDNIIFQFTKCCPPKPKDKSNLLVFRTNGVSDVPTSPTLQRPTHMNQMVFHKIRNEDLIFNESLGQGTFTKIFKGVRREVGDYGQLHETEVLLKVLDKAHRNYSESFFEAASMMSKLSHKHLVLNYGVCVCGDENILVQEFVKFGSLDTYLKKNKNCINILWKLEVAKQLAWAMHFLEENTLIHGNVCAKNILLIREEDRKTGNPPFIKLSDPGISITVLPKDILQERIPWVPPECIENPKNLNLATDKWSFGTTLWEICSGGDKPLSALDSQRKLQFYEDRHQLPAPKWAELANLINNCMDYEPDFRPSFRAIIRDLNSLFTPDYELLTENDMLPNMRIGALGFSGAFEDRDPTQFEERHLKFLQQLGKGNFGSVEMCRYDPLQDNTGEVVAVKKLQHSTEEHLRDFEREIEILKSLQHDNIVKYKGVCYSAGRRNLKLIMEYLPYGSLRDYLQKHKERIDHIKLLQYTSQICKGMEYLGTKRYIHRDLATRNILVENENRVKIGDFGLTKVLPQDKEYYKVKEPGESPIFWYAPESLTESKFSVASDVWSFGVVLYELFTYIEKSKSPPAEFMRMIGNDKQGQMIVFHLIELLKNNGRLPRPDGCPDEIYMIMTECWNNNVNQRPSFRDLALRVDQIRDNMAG
Sequence of Grb2 SH2 (P62993 whole entry, looked up, the tested form may be a part): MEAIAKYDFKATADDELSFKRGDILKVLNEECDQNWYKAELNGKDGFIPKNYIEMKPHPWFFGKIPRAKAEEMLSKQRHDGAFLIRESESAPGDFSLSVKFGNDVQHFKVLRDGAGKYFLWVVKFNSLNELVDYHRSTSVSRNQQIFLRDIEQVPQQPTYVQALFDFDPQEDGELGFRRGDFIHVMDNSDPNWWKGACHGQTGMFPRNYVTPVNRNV
Sequence of Hck (P08631 whole entry, looked up): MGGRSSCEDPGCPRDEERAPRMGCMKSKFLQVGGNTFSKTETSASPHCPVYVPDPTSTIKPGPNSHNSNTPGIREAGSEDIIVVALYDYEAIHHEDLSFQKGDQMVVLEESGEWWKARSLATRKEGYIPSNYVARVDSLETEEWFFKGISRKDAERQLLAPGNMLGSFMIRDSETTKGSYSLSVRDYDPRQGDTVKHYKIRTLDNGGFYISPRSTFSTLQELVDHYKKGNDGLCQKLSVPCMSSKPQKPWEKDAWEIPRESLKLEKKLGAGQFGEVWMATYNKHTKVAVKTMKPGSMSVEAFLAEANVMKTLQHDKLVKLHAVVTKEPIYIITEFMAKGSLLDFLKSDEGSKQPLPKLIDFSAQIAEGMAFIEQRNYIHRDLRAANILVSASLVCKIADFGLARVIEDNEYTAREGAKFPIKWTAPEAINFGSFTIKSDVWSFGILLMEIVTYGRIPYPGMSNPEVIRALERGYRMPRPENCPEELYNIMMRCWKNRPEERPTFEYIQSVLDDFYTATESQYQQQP
Sequence of FGFR1 (P11362 whole entry, looked up): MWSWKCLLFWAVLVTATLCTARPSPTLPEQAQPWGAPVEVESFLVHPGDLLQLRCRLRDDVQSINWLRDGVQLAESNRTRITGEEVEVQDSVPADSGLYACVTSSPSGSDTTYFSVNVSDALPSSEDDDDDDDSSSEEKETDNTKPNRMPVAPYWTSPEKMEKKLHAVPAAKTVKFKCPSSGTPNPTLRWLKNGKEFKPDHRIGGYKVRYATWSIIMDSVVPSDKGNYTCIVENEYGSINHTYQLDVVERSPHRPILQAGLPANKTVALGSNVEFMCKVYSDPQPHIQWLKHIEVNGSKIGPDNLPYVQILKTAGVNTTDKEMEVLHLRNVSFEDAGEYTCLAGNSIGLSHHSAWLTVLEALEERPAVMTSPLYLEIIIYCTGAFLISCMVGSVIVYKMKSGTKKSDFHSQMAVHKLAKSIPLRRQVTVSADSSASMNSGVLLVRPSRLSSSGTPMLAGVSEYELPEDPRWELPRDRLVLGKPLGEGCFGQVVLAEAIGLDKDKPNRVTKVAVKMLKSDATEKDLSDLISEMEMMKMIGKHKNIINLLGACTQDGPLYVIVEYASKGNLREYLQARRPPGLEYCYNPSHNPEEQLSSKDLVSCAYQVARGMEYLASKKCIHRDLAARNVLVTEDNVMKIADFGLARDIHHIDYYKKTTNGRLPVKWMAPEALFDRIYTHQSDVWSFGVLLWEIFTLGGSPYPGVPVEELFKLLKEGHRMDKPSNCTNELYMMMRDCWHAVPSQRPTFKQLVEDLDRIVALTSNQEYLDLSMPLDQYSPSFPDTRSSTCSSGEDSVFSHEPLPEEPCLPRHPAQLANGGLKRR
Sequence of Fyn (P06241 whole entry, looked up): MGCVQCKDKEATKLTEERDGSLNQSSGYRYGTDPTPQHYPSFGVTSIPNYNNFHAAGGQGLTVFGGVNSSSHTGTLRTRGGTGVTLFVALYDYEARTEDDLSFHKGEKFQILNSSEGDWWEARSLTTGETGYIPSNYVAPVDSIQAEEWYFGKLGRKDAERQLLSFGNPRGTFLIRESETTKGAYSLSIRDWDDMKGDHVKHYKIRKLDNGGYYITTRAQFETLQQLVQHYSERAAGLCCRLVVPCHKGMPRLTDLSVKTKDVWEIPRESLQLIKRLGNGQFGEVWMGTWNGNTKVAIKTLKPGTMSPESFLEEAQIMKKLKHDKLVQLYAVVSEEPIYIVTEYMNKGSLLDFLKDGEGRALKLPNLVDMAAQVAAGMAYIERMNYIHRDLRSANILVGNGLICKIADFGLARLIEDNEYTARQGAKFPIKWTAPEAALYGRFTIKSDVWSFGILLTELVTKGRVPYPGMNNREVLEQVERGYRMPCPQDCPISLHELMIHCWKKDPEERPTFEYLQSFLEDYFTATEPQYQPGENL
Sequence of Fes (P07332 whole entry, looked up): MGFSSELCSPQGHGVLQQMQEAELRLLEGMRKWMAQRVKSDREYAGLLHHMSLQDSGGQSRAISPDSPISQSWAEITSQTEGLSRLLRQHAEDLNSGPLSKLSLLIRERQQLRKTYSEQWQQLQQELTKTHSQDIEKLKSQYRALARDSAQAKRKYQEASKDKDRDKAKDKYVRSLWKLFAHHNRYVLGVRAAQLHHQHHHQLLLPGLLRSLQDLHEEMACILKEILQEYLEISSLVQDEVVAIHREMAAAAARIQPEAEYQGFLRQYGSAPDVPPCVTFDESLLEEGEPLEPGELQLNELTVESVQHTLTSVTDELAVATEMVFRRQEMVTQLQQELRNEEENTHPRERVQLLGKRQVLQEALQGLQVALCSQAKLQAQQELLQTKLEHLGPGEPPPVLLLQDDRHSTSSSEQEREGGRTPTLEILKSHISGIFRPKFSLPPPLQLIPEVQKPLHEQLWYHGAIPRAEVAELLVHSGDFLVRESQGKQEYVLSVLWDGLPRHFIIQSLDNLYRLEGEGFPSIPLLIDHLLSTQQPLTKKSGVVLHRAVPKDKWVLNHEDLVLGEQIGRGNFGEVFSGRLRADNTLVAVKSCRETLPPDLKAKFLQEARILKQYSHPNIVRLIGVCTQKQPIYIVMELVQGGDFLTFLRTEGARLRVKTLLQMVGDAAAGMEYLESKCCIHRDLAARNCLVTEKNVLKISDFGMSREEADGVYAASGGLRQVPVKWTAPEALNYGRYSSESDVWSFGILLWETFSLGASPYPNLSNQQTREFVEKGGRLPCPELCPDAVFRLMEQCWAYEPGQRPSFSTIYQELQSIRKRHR

Row | Sequence | phosphorylation enrichment (Hck) | phosphorylation enrichment (EPHB2) | phosphorylation enrichment (Fer (mouse)) | phosphorylation enrichment (Fyn) | phosphorylation enrichment (EPHB1) | phosphorylation enrichment (Fes) | phosphorylation enrichment (AncSZ) | phosphorylation enrichment (FGFR1) | phosphorylation enrichment (c-Abl (mouse)) | phosphorylation enrichment (FGFR3) | phosphorylation enrichment (Jak2) | phosphorylation enrichment (c-Src) | phosphorylation enrichment (MERTK) | SH2 binding enrichment (c-Src SH2) | SH2 binding enrichment (SHP2-C SH2) | SH2 binding enrichment (Grb2 SH2)
1 | ANLAKYGNPNE [BCHE_Y505_F502L] | 0.403 | 0.455 | 0.391 | 0.385 | 0.492 | 0.779 | 0.778 | 0.392 | 0.565 | 0.65 | 0.622 | 0.306 | 0.379 | 0.425 | 0.639 | 0.645
2 | ANQDDYISFRH [IMP4_Y226] | 1.19 | 0.469 | 0.357 | 0.899 | 0.507 | 0.841 | 1.17 | 1.07 | 0.557 | 0.967 | 0.901 | 1.11 | 0.482 | 0.46 | 0.617 | 0.821
3 | APNEFYDGDHD [HDAC3_Y414] | 0.769 | 0.605 | 0.59 | 0.535 | 0.613 | 1.29 | 1.3 | 0.624 | 1.04 | 1.18 | 1.32 | 0.574 | 0.602 | 0.57 | 0.632 | 0.727
4 | ARGMEYLAEQK [MST1R_Y1198_G1195S] | 0.46 | 0.47 | 0.384 | 0.491 | 0.488 | 0.914 | 0.807 | 0.39 | 0.599 | 0.826 | 0.77 | 0.381 | 0.435 | 0.524 | 0.603 | 0.741
5 | ASPALYRLDLD [TRIL_Y352] | 0.617 | 0.596 | 0.484 | 0.922 | 0.818 | 1.16 | 0.798 | 0.552 | 0.763 | 0.688 | 0.873 | 1.84 | 0.484 | 0.457 | 0.557 | 0.753
6 | ATARPYSPFII [LRP5_Y1528_R1529S_YF] | 0.594 | 0.474 | 9.77 | 0.504 | 0.403 | 0.735 | 0.627 | 0.409 | 0.467 | 0.618 | 0.508 | 0.633 | 0.552 | 0.715 | 0.75 | 1.04
7 | ATDLAYYLVRK [ASL_Y375] | 0.885 | 0.543 | 0.786 | 0.85 | 0.602 | 1.41 | 1.63 | 4.91 | 1.04 | 4.21 | 3.03 | 1.27 | 1.19 | 0.798 | 0.988 | 1.25
8 | ATPKGYETDAS [OTC_Y223_P225T] | 0.438 | 0.543 | 0.416 | 0.44 | 0.502 | 0.743 | 0.735 | 0.54 | 0.622 | 0.616 | 0.667 | 0.524 | 0.421 | 0.56 | 0.596 | 0.866
9 | AVHPGYGFLSE [PCCA_Y143] | 0.666 | 0.672 | 0.545 | 0.487 | 0.46 | 0.99 | 0.663 | 0.662 | 0.692 | 1.12 | 0.82 | 0.47 | 0.527 | 0.466 | 0.523 | 0.706
10 | AVISVYDLVAV [PSEN1_Y256] | 6.2 | 4.92 | 13 | 6.35 | 6.18 | 1.2 | 1.24 | 0.429 | 0.753 | 0.577 | 0.82 | 4.51 | 6.38 | 1.39 | 1.03 | 1.03
11 | CDDGKYVYVVT [RPS6KA3_Y488_Y483C] | 0.75 | 0.777 | 0.798 | 0.84 | 0.896 | 1.6 | 1.48 | 0.834 | 1.05 | 1.15 | 1.42 | 0.863 | 0.525 | 0.443 | 0.548 | 0.75
12 | CEHRGYLYLAI [TEK_Y897] | 0.614 | 0.53 | 0.551 | 0.494 | 0.664 | 1.51 | 1.04 | 0.726 | 0.84 | 0.72 | 0.973 | 0.527 | 0.708 | 0.741 | 0.761 | 1.21
13 | CENCHYPILPL [LCK_Y25_V28L] | 0.746 | 0.422 | 0.423 | 0.391 | 0.43 | 0.903 | 0.678 | 0.541 | 0.607 | 0.632 | 0.718 | 0.436 | 0.357 | 0.912 | 1.29 | 1.13
14 | CERFSYFGMKA [SLC15A2_Y60_YF] | 0.557 | 0.745 | 0.467 | 0.529 | 0.571 | 1.26 | 1.13 | 1.24 | 0.94 | 0.938 | 2.66 | 0.575 | 0.544 | 0.704 | 0.577 | 1.02
15 | CGTPDYIAPEI [PRKCG_Y521] | 0.568 | 0.755 | 0.484 | 0.53 | 0.715 | 1.14 | 1.99 | 1.23 | 0.632 | 1.26 | 0.882 | 0.433 | 0.444 | 0.589 | 0.699 | 0.853
16 | CGTPDYIDPEI [PRKCG_Y521_A523D] | 0.7 | 0.725 | 0.531 | 0.581 | 1.1 | 1.41 | 1.58 | 2.28 | 0.813 | 1.85 | 1.31 | 0.481 | 0.454 | 0.461 | 0.52 | 0.814
